Measurements published in publication PMC4321536, “Chloroplast-encoded serotonin N-acetyltransferase in the red alga Pyropia yezoensis: gene transition to the nucleus from chloroplasts” (Journal of Experimental Botany, 2014).

Substrate: NCCc1c[nH]c2ccc(O)cc12
Assay: HPLC-fluorescence detection of N-acetylserotonin; Lineweaver-Burk plot
Type: biochemical, Pyropia yezoensis
Conditions: acetyl-CoA co-substrate (0.5 mM in standard assay), 100 mM potassium phosphate pH 8.8, 55 °C

B1: PySNAT (Pyropia yezoensis; I2V) (protein)
chain: MVFWKNFFQNSNINASSEKNFKKLIVLDKTCDKIEFKDIYLSSNKNINLYELEQLCDSVGWVKRPLKKVKIALKNSSIIISLIQKKDANSKLVGFARATSDNGFNATIWDVVIHPDFQGLGLGKVVIHQLIQQLRQAEISTITLFAEPDVVSFYKKLGFIKDPDGVKGMFWYPR
notes: full-length chloroplast-encoded protein, 174 aa, calculated 20099 Da, C-terminal His tag kept (pET28b NcoI/XhoI), E. coli BL21(DE3), Ni-NTA; no transit peptide; I2V read from the printed NcoI forward primer (ATG GTC for native ATG ATC)
Km: 467 µM
